Laboratory results as given in US20250387492A1, “HSP90-TARGETING CONJUGATES AND FORMULATIONS THEREOF” (Fusion Pharmaceuticals Inc., priority 2018, published 2025).
Where “and” joins values, the source holds several entries; their conditions need not be identical. Equal values may be shown once. Read-outs that look alike come from different tables or passages of the source.

Experiments:
[1] = system: H69 tumor model mice; experiment: Biodistribution in H69 tumor model; details: 5 mg/kg; 24 h; H69
From the text: (§1) In other studies, biodistribution of the conjugates was studied with H460 and H69 tumor models.

[2] = Biodistribution in H69 tumor model; details: mouse, in vivo, 5 mg/kg, Tumor Levels, 24 h, H69, 5 mg/kg; H69
From the text: as §1

[3] = system: H460 tumor model mice; experiment: Biodistribution in H460 tumor model; details: 5 mg/kg
From the text: as §1

[4] = Biodistribution in H460 tumor model; details: mouse, in vivo, 5 mg/kg, Tumor Levels, 24 h
From the text: as §1

[5] = system: NCI-H460 tumor-bearing mice; experiment: H460 mouse tumor and plasma pharmacokinetics; type: in vivo; details: 25 mg/kg IV, individual animals
Procedure: (§2) Conjugate accumulation at 24 and 48 h in tumor and plasma of NCI-H460 tumor-bearing mice (lung cancer). Conjugate 1 was dosed at 25 mg/kg intravenously.

[6] = H460 mouse tumor and plasma pharmacokinetics; type: in vivo; details: mouse, 25 mg/kg IV, mean of 3 animals
Procedure: as §2

[7] = Lu levels in tumor, kidney and liver of mice at 0.5 mg/kg
[8] = Plasma profile in male SD rats; type: in vivo, rat; details: 5 mg/kg IV; for Vd: male, SD, iv, 5 mg/kg
Procedure: Plasma profile for Conjugate 1 at 5 mg/kg dose (via IV) in male SD rats was obtained. Plasma profile for lutetium from Conjugate 1 was also measured.

[9] = system: NCI-H460 tumor-bearing mice; experiment: H460 mouse tumor and plasma pharmacokinetics; type: in vivo; details: 25 mg/kg IV; 1 h; individual animals
[10] = H460 mouse tumor and plasma pharmacokinetics; type: in vivo; details: mouse, 25 mg/kg IV, mean of 3 animals; remark: listed apart in the source
[11] = Biodistribution in healthy rat tissues; type: in vivo; details: 5 mg/kg, healthy rats; for level at time molar: rat
Procedure: Biodistributions of the conjugates were studied. Conjugate 1 was dosed at 5 mg/kg to healthy rats. The amount of Conjugate 1 and lutetium from Conjugate 1 in rat spleen, kidney, brain, liver and bone marrow was measured.

[12] = H460 and H69 tumor models, Conjugate 1 vs Conjugate 2
[13] = plasma, read-out: Compound 1 Conc. in NCI-H460 Mouse Plasma, Mean
[14] = tumor, read-out: Compound 1 Conc. in NCI-H460 Mouse Tumor, Mean

CCNC(=O)c1nnc(-c2cc(C(C)C)c(O)cc2O)n1-c1ccc(CN2CCN(C(=O)CN3CCN4CCN5CCN(CC3)CC(=O)[O][Lu]([O]C(=O)C5)[O]C(=O)C4)CC2)cc1 [Conjugate 1]
Tumor:liver ratio, 24 h, H69 [1]: 0.18
level at time molar at 24 h [2]: 1610 nM
Tumor:liver ratio, 24 h, H460 (1) ([3]; 24 h, H460 study (1)): 0.16
Tumor:kidney ratio, 24 h, H460 (2) ([3]; 24 h, H460 study (2)): 1.8
Tumor:liver ratio, 24 h, H460 (2) ([3]; 24 h, H460 study (2)): 1.2
Clearance from plasma ([3]; H460 and H69 tumor models): clear rapidly from plasma
Tumor retention (comparison) [3, 12]: similar
Tumor uptake (comparison) [3, 12]: noticeably higher than Conjugate 2
tumor:kidney ratio ([3]; H460 tumor model): around 2
tumor:liver ratios ([3]; at 24 h, across H460 and H69 tumor models): 0.1-1
level at time molar at 24 h ([4]; H460 (1), H460 study (1)): 1740 nM
level at time molar at 24 h ([4]; H460 (2), H460 study (2)): 2490 nM
Compound 1 Conc. in NCI-H460 Mouse Plasma ([5]; 1 h): 1.07 µM and 1.04 µM and 7.98 µM
Compound 1 Conc. in NCI-H460 Mouse Plasma ([5]; 24 h): 0.020 μM (2×) and 0.046 μM
Compound 1 Conc. in NCI-H460 Mouse Tumor ([5]; 24 h): 3.85 µM and 4.01 µM and 4.26 µM
Compound 1 Conc. in NCI-H460 Mouse Plasma ([5]; 48 h): 0.016 µM and 0.013 µM and 0.020 µM
Compound 1 Conc. in NCI-H460 Mouse Tumor ([5]; 48 h): 1.95 µM and 3.09 µM and 3.10 µM
level at time molar at 24 h [6, 13]: 29 nM
level at time molar at 48 h [6, 13]: 16 nM
level at time molar at 24 h [6, 14]: 4040 nM
level at time molar at 48 h [6, 14]: 2710 nM
Average Lu in Liver [7]: 23.85 % ID/g
Average Lu in kidney [7]: 1.00 % ID/g
Average Lu in tumor [7]: 1.28 % ID/g
t1/2 ([8]; analyte Conjugate 1): 1.45 H
t1/2 ([8]; analyte Lu from Conjugate 1): 0.56 H
Vd ([8]; rat, analyte Conjugate 1, read-out: Vss_obs): 0.483 L/kg
Vd ([8]; rat, analyte Conjugate 1, read-out: Vz_obs): 1.44 L/kg
AUC(0-t) ([8]; rat, analyte Conjugate 1): 7.31 µM·h
Cmax ([8]; rat, analyte Conjugate 1): 14200 nM
AUC(0-inf) ([8]; rat, analyte Conjugate 1, read-out: AUC 0-inf_obs): 7.34 µM·h
clearance ([8]; rat, analyte Conjugate 1, read-out: Cl-obs): 11.1 mL/min/kg
Compound 1 Conc. in NCI-H460 Mouse Tumor [9]: 9.30 µM and 7.05 µM and 11.1 µM
level at time molar at 1 h [10, 13]: 3360 nM
level at time molar at 1 h [10, 14]: 9130 nM
Conjugate 1 Conc., Bone marrow ([11]; individual animals A1-A3): 0.063 µM and 0.664 µM and 0.838 µM
Conjugate 1 Conc., Kidney ([11]; individual animals A1-A3): 7.75 µM and 7.50 µM and 8.05 µM
Conjugate 1 Conc., Liver ([11]; individual animals A1-A3): 1.50 µM and 2.46 µM and 3.33 µM
Conjugate 1 Conc., Spleen ([11]; individual animals A1-A3): 0.148 µM and 0.134 µM and 0.232 µM
Lu from Conjugate 1 Conc., Bone marrow ([11]; individual animals A1-A3): 0.030 µM and 0.021 µM and 0.022 µM
Lu from Conjugate 1 Conc., Brain ([11]; individual animals A1-A3): <BLQ
Lu from Conjugate 1 Conc., Kidney ([11]; individual animals A1-A3): 3.93 µM and 4.14 µM and 4.44 µM
Lu from Conjugate 1 Conc., Liver ([11]; individual animals A1-A3): 2.34 µM and 2.25 µM and 3.47 µM
Lu from Conjugate 1 Conc., Spleen ([11]; individual animals A1-A3): 0.154 µM and 0.163 µM and 0.198 µM
Lu from Conjugate 1 Conc., Bone marrow, Mean ([11]; mean): 0.024 µM
Lu from Conjugate 1 Conc., Brain, Mean ([11]; mean): <BLQ
Lu from Conjugate 1 Conc., Kidney, Mean ([11]; mean): 4.17 µM
Lu from Conjugate 1 Conc., Spleen, Mean ([11]; mean): 0.172 µM
level at time molar ([11]; bone marrow, mean, read-out: Conjugate 1 Conc., Bone marrow, Mean): 522 nM
level at time molar ([11]; brain, individual animals A1-A3, read-out: Conjugate 1 Conc., Brain): 37 nM
level at time molar ([11]; brain, mean, read-out: Conjugate 1 Conc., Brain, Mean): 49 nM
level at time molar ([11]; kidney, mean, read-out: Conjugate 1 Conc., Kidney, Mean): 7770 nM
level at time molar ([11]; liver, mean, read-out: Conjugate 1 Conc., Liver, Mean): 2430 nM
level at time molar ([11]; spleen, mean, read-out: Conjugate 1 Conc., Spleen, Mean): 171 nM
